Reference: publication PMC6921004, “Structural Characterization of Full-Length Human Dehydrodolichyl Diphosphate Synthase Using an Integrative Computational and Experimental Approach” (Biomolecules, 2019)

B1: human dehydrodolichyl diphosphate synthase (DHDDS), full-length homodimer (Homo sapiens) (protein)
chain: MSWIKEGELSLWERFCANIIKAGPMPKHIAFIMDGNRRYAKKCQVERQEGHSQGFNKLAETLRWCLNLGILEVTVYAFSIENFKRSKSEVDGLMDLARQKFSRLMEEKEKLQKHGVCIRVLGDLHLLPLDLQELIAQAVQATKNYNKCFLNVCFAYTSRHEISNAVREMAWGVEQGLLDPSDISESLLDKCLYTNRSPHPDILIRTSGEVRLSDFLLWQTSHSCLVFQPVLWPEYTFWNLFEAILQFQMNHSVLQKARDMYAEERKRQQLERDQATVTEQLLREGLQASGDAQLRRTRLHKLSARREERVQGFLQALELKRADWLARLGTASA
notes: full-length; expressed in E. coli T7 express from pET-32b as thioredoxin-6xHis fusion, tag and fusion removed by TEV protease; without NgBR
B2: Dehydrodolichyl diphosphate synthase (DHDDS), full-length human (enzyme, UniProt Q86SQ9 1-333, looked up)
chain: B1 chain
notes: Dehydrodolichyl diphosphate synthase (DHDDS), human, UniProt Q86SQ9, full length; synthesized gene cloned into pET-32b between NdeI and BamHI; Expressed as a TRX fusion with a 6xHis-tag and a TEV site; the tag and the fusion were removed by TEV protease; also called hDHDDS; human DHDDS; source: E. coli T7 express, purified (TALON-Superflow, TEV cleavage, second TALON-Superflow, Superdex-200 SEC)

What was measured:
purified protein [1] = substrate: C=C(C)CCO[P@@](=O)(O)OP(=O)(O)O; assay: purified protein; conditions: 10 μM FPP, 0.5 μM protein, labelled compound (^14C), Tris-HCl pH 7.5, 150 mM NaCl, 20 mM β-mercaptoethanol, 0.1% Triton X-100, 30 °C, homodimer without NgBR
purified protein [2] = substrate: CC(C)=CCC/C(C)=C/CC/C(C)=C/CO[P@@](=O)(O)OP(=O)(O)O; assay: purified protein; format: biochemical, Homo sapiens; conditions: 20 μM ^14C-IPP, 0.1 μM protein, Tris-HCl pH 7.5, 150 mM NaCl, 20 mM β-mercaptoethanol, 0.1% Triton X-100, 30 °C, homodimer without NgBR
[3] = biological target: the molecule itself; assay: SEC-MALS; Superdex-200 increase 10/300 GL; Tris-HCl pH 7.5, 150 mM NaCl, 20 mM beta-mercaptoethanol, 0.02% Triton X-100; sample 2 mg/mL, 50 uL

Protein	Km (purified protein [1])	kcat (purified protein [1])	Km (purified protein [2])	kcat (purified protein [2])	stoichiometry N [3]
B1	9.3 ± 2.8 µM	0.0011 ± 0.0001 s⁻¹	0.45 ± 0.1 µM	0.0011 ± 0.0001 s⁻¹	–
B2	–	–	–	–	2
